Entries after “also recorded” stand apart in the source; their conditions may differ. Non-standard residues stand in square brackets, D forms with d. No end group written: not given here.
Tests used:
amyloid beta oligomers = biological target: T1, amyloid beta oligomers (Homo sapiens, UniProt P05067); experiment: SPR binding kinetics, single-cycle, heterogeneous binding model (FIG. 3)
T1 construct: 1 mg lyophilized Aß1-42 and N-terminal biotinylated Aß1-42; biotin (only on part of the peptide molecules)
Description: (§1) 1 mg lyophilized Aß1-42 and N-terminal biotinylated Aß1-42 were each dissolved in 1 ml 100% hexafluoroisopropanol (HFIP) and dissolved overnight at room temperature. For the oligomer and fibril preparation, non-biotinylated Aß was used with N-terminal biotinylated Aß at a ratio of 1:10 and the HFIP was evaporated (Concentrator 5301 from Eppendorf). The resultant Aß film, at a final concentration of 80 μM, was placed in sodium phosphate buffer (10 mM, pH 7.4) and incubated (RT, 600 rpm). The incubation time was 3 h for the oligomer preparation, and 24 h for the fibril preparation. 100% N-terminal biotinylated Aß1-42 without incubation was used for the preparation of monomers.
(§2) The density gradient centrifugation was carried out subsequent to the Aß preparation to purify the respective Aß species according to the size of the same. An iodixanol gradient in 10 mM sodium phosphate buffer, pH 7.4 with rising concentrations from 50% to 5% v/v iodixanol was used for this purpose. 100 μl of the Aß sample was applied and separated by way of ultracentrifugation (3 h, 4° C., 259000 g). Subsequently, the gradient was fractionated into 14 fractions, 140 μl each. Monomeric Aß are present in the first two top fractions, Aß oligomers in fractions 4 to 6, and Aß fibrils in fractions 11 to 13.
A T200 from Biacore (GE Healthcare) was used for SPR spectroscopy. The Aß species purified by way of density gradient centrifugation were directly immobilized on a sensor chip (Series S Sensor Chips SA) according to the manufacturer's instructions by way of biotin-streptavidin coupling. 1×PBS was used as the running buffer. Loading took place at 25° C. and a flow rate of 5 μl/min. Subsequently, the flow cells were freed from non-specifically bound ligand overnight at a steady flow of 30 μl/min.
Binding kinetics were likewise measured by way of SPR spectroscopy using a T200 device from Biacore (GE Healthcare). The standard conditions are 25° C. and a flow rate of 30 μl/min. Different lyophilizates of the D peptides were placed in the 1×PBS running buffer and serially diluted. The method used was a “single-cycle” kinetics method, wherein five increasing analyte concentrations were pumped over the immobilized flow cells. The contact times selected, depending on the analyte, were 90 to 120 s for association and dissociation and 1800 to 5400 s for the final dissociation. The sensorgrams were double referenced with the aid of an unloaded flow cell and the running buffer that was used. The binding curves were evaluated by way of kinetic fit models (heterogeneous binding model) using the Biacore T200 evaluation software (version 2.0).
FIGS. 2 to 4 show the results on the binding behavior of the cyclized peptides according to the invention (affinity study). The figures show data for the kinetic evaluation of the binding strength of the various candidates to amyloid beta monomers (FIG. 2), amyloid beta oligomers (FIG. 3), and amyloid beta fibrils (FIG. 4). The two binding constants that result when fitting a heterogeneous binding model are shown in each case, plotted as white bars and black bars. It is important to remember that a logarithmic scale is shown here, which means that minor differences in the bar size represent major differences in the dissociation constant KD. White bars are the respective low-affinity sites and the binding strengths thereof, and black bars show the high-affinity binding sites and the binding strengths thereof. […]

transgenic AD mice = conditions: oral administration with drinking water; cited from earlier work
amyloid beta monomers = biological target: T2, amyloid beta monomers (Homo sapiens, UniProt P05067); experiment: SPR binding kinetics, single-cycle, heterogeneous binding model (FIG. 2); conditions: 25° C., high-affinity site
T2 construct: 100% N-terminal biotinylated Aß1-42 without incubation
Description: as §1
as §2, with “Subsequently, the gradient was fractionated into 14 fractions, 140 μl each. Monomeric Aß are present in the first two top fractions, Aß oligomers in fractions 4 to 6, and Aß fibrils in fractions 11 to 13.” left out
(§3) Binding kinetics were likewise measured by way of SPR spectroscopy using a T200 device from Biacore (GE Healthcare). […] The binding curves were evaluated by way of kinetic fit models (heterogeneous binding model) using the Biacore T200 evaluation software (version 2.0). […]

amyloid beta fibrils = biological target: T3, amyloid beta fibrils (Homo sapiens, UniProt P05067); experiment: SPR binding kinetics, single-cycle, heterogeneous binding model (FIG. 4); conditions: 25° C., high-affinity site
T3 construct: 1 mg lyophilized Aß1-42 and N-terminal biotinylated Aß1-42; biotin (only on part of the peptide molecules)
Description: as §1
as §2, with “Subsequently, the gradient was fractionated into 14 fractions, 140 μl each. Monomeric Aß are present in the first two top fractions, Aß oligomers in fractions 4 to 6, and Aß fibrils in fractions 11 to 13.” left out
as §3

APPsDI mice = experiment: Morris water maze (MWW) test, spatial memory (FIG. 5); format: in vivo; conditions: five consecutive days, compared to saline
Description: The test measures the spatial memory of animals, which here were genetically engineered APPsDI mice.
The time is measured in seconds that an animal requires to locate a platform hidden closely beneath the water surface in a water tank. This is measured in several experiments per day on several consecutive days. […] The search time is plotted in seconds on five consecutive days for mice that were treated with the peptide according to the invention cD3R (SEQ ID NO. 5), compared to placebo experiments (saline).

A beta oligomers = biological target: T4, A beta oligomers (Homo sapiens, UniProt P05067); experiment: Density gradient centrifugation fractions treated with peptide, A beta size distribution (FIG. 1); format: biochemical; conditions: fractions 4 to 8 (or 4 to 10) of density gradient; peptide 20 μM; versus control and linear D3
T4 construct: approximately 20 nM or 1.8 ng Aß 1-42
Description: (§4) Thereafter, the resultant fractions are treated with and without an active ingredient and determined by way of RP-HPLC, for example. In this way, it is possible to determine the effectiveness of the active ingredient.
(§5) A further method is described hereafter. The so-called QIAD (quantitative determination of interference with Aß aggregate size distribution) test can be used for the quantitative analysis of active ingredients. The method for quantitatively analyzing the influence of an active ingredient on the particle size distribution of amyloid peptides and/or proteins in a sample comprises the following steps. […] This change is established quantitatively. […] Finally, the concentration of A beta in the respective fraction is determined by completely denaturing the A beta species during a reverse phase (RP-)HPLC carried out subsequent to the fractionating. […] Eluting A beta is detected by way of UV absorption at 215 nm. […] Depending on the fraction, the mean value from multiple, for example six, experiments conducted independently of one another can be calculated with the resulting standard deviation. The advantage of HPLC analysis is that detection is very sensitive (such as approximately 20 nM or 1.8 ng Aß 1-42) and quantification is reliable independently of the state of aggregation and the solvent. […]

A beta monomer = biological target: T5, A beta monomer (Homo sapiens, UniProt P05067); experiment: as above; format: biochemical; conditions: fractions 1 to 2 of density gradient
T5 construct: approximately 20 nM or 1.8 ng Aß 1-42
Description: as §4, §5

T1 sequence (P05067 672-713): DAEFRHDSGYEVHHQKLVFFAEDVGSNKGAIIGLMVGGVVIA
T3 sequence (P05067 672-713): as above
T4 sequence (P05067 672-713): as above
T5 sequence (P05067 672-713): as above
T2 sequence (P05067 672-713): as above

rprtrlhthrnr ([dR][dP][dR][dT][dR][dL][dH][dT][dH][dR][dN][dR]) [D3, D-enantiomeric linear peptide known from WO 02/081505 A2]
binding sites bound on amyloid beta oligomer (amyloid beta oligomers; fit of SPR binding data): binds only a low-affinity site, but not a high-affinity site | cognitive abilities of treated mice (transgenic AD mice): significantly improved cognitive abilities | plaque in treated mice (transgenic AD mice): considerably less plaque

rprtrlhthrnrr (cyclo([dR][dP][dR][dT][dR][dL][dH][dT][dH][dR][dN][dR][dR])) [cD3r]
KD (kinetics), binding affinity to amyloid beta monomers (amyloid beta monomers): particularly high affinity | KD (kinetics), binding strength to amyloid beta fibrils (amyloid beta fibrils): does very well | learning (search time to locate hidden platform) (APPsDI mice): significant | KD (kinetics), binding strength to amyloid beta oligomers (amyloid beta oligomers; SPR, 25° C., high-affinity site, compared with other cyclized peptides): binds even more strongly by two orders of magnitude than the other cyclized peptides

rprtrlhthrnr (cyclo([dR][dP][dR][dT][dR][dL][dH][dT][dH][dR][dN][dR]); SMILES CC(C)C[C@H]1NC(=O)[C@@H](CCCNC(=N)N)NC(=O)[C@@H]([C@H](C)O)NC(=O)[C@@H](CCCNC(=N)N)NC(=O)[C@H]2CCCN2C(=O)[C@@H](CCCNC(=N)N)NC(=O)[C@@H](CCCNC(=N)N)NC(=O)[C@@H](CC(N)=O)NC(=O)[C@@H](CCCNC(=N)N)NC(=O)[C@@H](Cc2c[nH]cn2)NC(=O)[C@@H]([C@H](C)O)NC(=O)[C@@H](Cc2c[nH]cn2)NC1=O) [cD3, cyclized D3, N-terminal amino group and C-terminal carboxyl group coupled by an amide bond]
elimination / decrease of A beta oligomer concentration (A beta oligomers): eliminates the oligomers in fractions 4 to 8 even more efficiently than linear D3; also recorded: clear decrease in the A beta oligomer concentration | influence on the A beta monomer concentration (A beta monomer): no influence | number of low-affinity sites relative to high-affinity sites (amyloid beta oligomers; from Rmax 79/21%): approximately 4 times | Rmax, contribution of high-affinity site (KD2) to RU total loading (amyloid beta oligomers; high-affinity site (KD2)): 21% | Rmax, contribution of low-affinity site to RU total loading (amyloid beta oligomers; low-affinity site (white bar)): 79%

rkrtrlhthrnr (cyclo([dR][dK][dR][dT][dR][dL][dH][dT][dH][dR][dN][dR])) [cD3P2K]
KD (kinetics), binding strength to amyloid beta fibrils (amyloid beta fibrils): sub-pM binding range

Source: patent US10428127B2, “Cyclic, amyloid beta-binding peptides and the use thereof” (FORSCHUNGSZENTRUM JUELICH GMBH, priority 2013, dated 2019)
